The labels stand for the following.
B1: SiRFP-60Δ: sulfite reductase flavoprotein amino acids 52-599/Δ212-217 (Δ-AAPSQS) (domain or fragment, Escherichia coli K-12, UniProt P38038 52-599, looked up)
chain: AATPAPAAEMPGITIISASQTGNARRVAEALRDDLLAAKLNVKLVNAGDYKFKQIASEKLLIVVTSTQGEGEPPEEAVALHKFLFSKKAPKLENTAFAVFSLGDSSYEFFCQSGKDFDSKLAELGGERLLDRVDADVEYQAAASEWRARVVDALKSRAPVVATGAVNEIHTSPYSKDAPLVASLSVNQKITGRNSEKDVRHIEIDLGDSGMRYQPGDALGVWYQNDPALVKELVELLWLKGDEPVTVEGKTLPLNEALQWHFELTVNTANIVENYATLTRSETLLPLVGDKAKLQHYAATTPIVDMVRFSPAQLDAEALINLLRPLTPRLYSIASSQAEVENEVHVTVGVVRYDVEGRARAGGASSFLADRVEEEGEVRVFIEHNDNFRLPANPETPVIMIGPGTGIAPFRAFMQQRAADEAPGKNWLFFGNPHFTEDFLYQVEWQRYVKDGVLTRIDLAWSRDQKEKVYVQDKLREQGAELWRWINDGAHIYVCGDANRMAKDVEQALLEVIAEFGGMDTEAADEFLSELRVERRYQRDVY
B2: SiRFP-60X: sulfite reductase flavoprotein amino acids 52-599 (C162T/C552S/E121C/N556C) (domain or fragment, Escherichia coli K-12, UniProt P38038 52-599, looked up)
chain: AATPAPAAEMPGITIISASQTGNARRVAEALRDDLLAAKLNVKLVNAGDYKFKQIASEKLLIVVTSTQGCGEPPEEAVALHKFLFSKKAPKLENTAFAVFSLGDSSYEFFTQSGKDFDSKLAELGGERLLDRVDADVEYQAAASEWRARVVDALKSRAPVAAPSQSVATGAVNEIHTSPYSKDAPLVASLSVNQKITGRNSEKDVRHIEIDLGDSGMRYQPGDALGVWYQNDPALVKELVELLWLKGDEPVTVEGKTLPLNEALQWHFELTVNTANIVENYATLTRSETLLPLVGDKAKLQHYAATTPIVDMVRFSPAQLDAEALINLLRPLTPRLYSIASSQAEVENEVHVTVGVVRYDVEGRARAGGASSFLADRVEEEGEVRVFIEHNDNFRLPANPETPVIMIGPGTGIAPFRAFMQQRAADEAPGKNWLFFGNPHFTEDFLYQVEWQRYVKDGVLTRIDLAWSRDQKEKVYVQDKLREQGAELWRWINDGAHIYVSGDACRMAKDVEQALLEVIAEFGGMDTEAADEFLSELRVERRYQRDVY
B3: SiRFP-43: sulfite reductase flavoprotein amino acids 237-599 (domain or fragment, Escherichia coli K-12, UniProt P38038 237-599, looked up)
chain: LVASLSVNQKITGRNSEKDVRHIEIDLGDSGMRYQPGDALGVWYQNDPALVKELVELLWLKGDEPVTVEGKTLPLNEALQWHFELTVNTANIVENYATLTRSETLLPLVGDKAKLQHYAATTPIVDMVRFSPAQLDAEALINLLRPLTPRLYSIASSQAEVENEVHVTVGVVRYDVEGRARAGGASSFLADRVEEEGEVRVFIEHNDNFRLPANPETPVIMIGPGTGIAPFRAFMQQRAADEAPGKNWLFFGNPHFTEDFLYQVEWQRYVKDGVLTRIDLAWSRDQKEKVYVQDKLREQGAELWRWINDGAHIYVCGDANRMAKDVEQALLEVIAEFGGMDTEAADEFLSELRVERRYQRDVY

The target in this assay is T1, Escherichia coli sulfite reductase hemoprotein (Escherichia coli K-12, UniProt P17846 1-570).
T1 sequence: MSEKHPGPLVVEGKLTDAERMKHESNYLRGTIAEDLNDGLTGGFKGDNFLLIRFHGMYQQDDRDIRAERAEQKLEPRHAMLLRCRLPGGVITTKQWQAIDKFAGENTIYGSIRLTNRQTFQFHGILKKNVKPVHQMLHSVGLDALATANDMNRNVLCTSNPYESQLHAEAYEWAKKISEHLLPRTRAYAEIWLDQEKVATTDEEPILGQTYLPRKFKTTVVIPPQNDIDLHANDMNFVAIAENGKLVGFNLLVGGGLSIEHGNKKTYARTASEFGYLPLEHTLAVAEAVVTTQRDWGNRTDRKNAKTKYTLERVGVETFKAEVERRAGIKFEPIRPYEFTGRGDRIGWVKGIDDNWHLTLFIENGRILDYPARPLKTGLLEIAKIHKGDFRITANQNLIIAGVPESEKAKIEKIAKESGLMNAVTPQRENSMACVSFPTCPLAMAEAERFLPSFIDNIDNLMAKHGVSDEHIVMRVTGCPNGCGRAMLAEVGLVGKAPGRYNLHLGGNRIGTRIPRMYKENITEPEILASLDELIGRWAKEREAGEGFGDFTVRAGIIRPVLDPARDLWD
As to the kind of experiment: cryo-EM structure.
On to B1, for which the binding result is on record as “binds”.

For B2, the binding result is given as “binds”.

As to B3, the binding result is reported as “binds”.

Source of the values: paper PMC11195156 (bioRxiv, 2025).
